Among the data in paper PMC2901993 (Biochemical and biophysical research communications, 2010) are Kd values, retold here.

Data set [1] concerns the target translin (in translin-trax complex);trax (translin-associated factor X) (Mus musculus;Mus musculus, UniProt Q62348;Q9QZE7 1-228;1-290, |). Kind of data set: fluorescence polarization. (In fluorescence polarisation assays a small probe gives low polarisation when free and higher when bound to something large.)
The target in data set [2] is translin (TB-RBP) (Mus musculus, UniProt Q62348 1-228). Kind of data set: fluorescence polarization.
Chain of translin (TB-RBP) (Q62348 whole entry): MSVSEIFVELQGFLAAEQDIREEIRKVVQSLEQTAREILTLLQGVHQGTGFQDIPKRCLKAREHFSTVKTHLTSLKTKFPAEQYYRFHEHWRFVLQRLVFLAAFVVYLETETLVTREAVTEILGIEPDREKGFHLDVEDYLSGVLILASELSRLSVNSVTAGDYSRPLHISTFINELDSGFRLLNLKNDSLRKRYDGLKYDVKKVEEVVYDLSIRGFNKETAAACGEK

Chain of translin (in translin-trax complex);trax (translin-associated factor X) (Q62348 whole entry, chain 1 of 2): as the sequence (Q62348 whole entry) above
Chain of translin (in translin-trax complex);trax (translin-associated factor X) (Q9QZE7 whole entry, chain 2 of 2): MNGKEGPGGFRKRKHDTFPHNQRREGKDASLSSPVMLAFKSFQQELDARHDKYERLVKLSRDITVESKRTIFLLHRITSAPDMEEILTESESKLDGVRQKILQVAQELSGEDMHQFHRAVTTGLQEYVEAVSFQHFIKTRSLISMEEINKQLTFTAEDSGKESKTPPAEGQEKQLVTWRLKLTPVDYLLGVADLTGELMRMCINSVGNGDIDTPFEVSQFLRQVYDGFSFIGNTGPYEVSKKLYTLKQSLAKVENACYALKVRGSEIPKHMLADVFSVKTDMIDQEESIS

Usually Kd stands for the equilibrium constant for the complex coming apart. A higher Kd goes with lower affinity. As to UCUGAGCCCUGAGCUGCCAAGGAGCCACGAGAUCUGAGU (ssRNA) [PRM-2], the Kd came to 40000 nM in data set [1] and 200 nM in data set [2].
For UCUGAGCCCUCACCUGCCAAGGAGCCACCACAUCUGAGU (ssRNA) [PRM-2 Variant 3], binding in data set [2] was put at a Kd of 300 nM.
UCUGAGCCCUGAGCUGCCAAGGAGCCACCACAUCUGAGU (ssRNA) [PRM-2 Variant 2] returned a Kd in data set [2] of 200 nM.
The molecule UCUGAGCCCUCACCUGCCAAGGAGCCACGAGAUCUGAGU (ssRNA) [PRM-2 Variant 1] came in with an equilibrium dissociation constant (Kd) in data set [2] of 1000 nM.
With UCUGAGCCCUGAGCUGCCAAGGAGCCACGA (ssRNA) [PRM-2(1-30)], in data set [2], the Kd is 200 nM.
AGAGGAGGAGGAGGAGGAGGAGGAG (ssRNA) [rGAG] showed a dissociation constant (Kd) in data set [2] of 500 nM.
Regarding TCTGAGCCCTGAGCTGCCAAGGAGCCACGAGATCTGAGT (ssDNA) [dPRM-2], the Kd in data set [1] was determined as 4000 nM; in data set [2], 10000 nM.
